From the nanobody polyreactivity screen of Harvey et al. (2022) come the findings set out here.

The series is described as follows: yeast display, Sf9 membrane polyspecificity reagent, FACS + sequencing; frameworks hold sequencing errors. An outline of the steps: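 Synthetic nanobody libraries on Saccharomyces cerevisiae BJ5465 were galactose-induced for 36–48 hours, stained 1 hour at 4 °C with 10% biotinylated, detergent-solubilized Sf9 membrane reagent and enriched on streptavidin microbeads. FACS then separated cells into low and high (top ~1%) gates by anti-HA (expression) and streptavidin (reagent binding) fluorescence. Genes were colony-PCR amplified, MiSeq 2 × 250 sequenced and CDR-length filtered. A clone's polyreactivity label is that of its gate of origin.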
Consider “QVQLVESGGGLVQAGGSLRLSCAASGSIFDDYAMGWYRQAPGKERELVATITSGDTTNYADSVKGRFTISRDNAKNTVYLQMNSLKPEDTAVYYCAADYLTSRSRTFDYWGQGTQVTVSS”, for which the “polyreactivity (PSR sort gate)” value is given as “low polyreactivity”.
With “QVQLVESGGGLVQAGGSLRLSCAASGSIFDENAMGWYIQAPGKERELVAAITGSGVRTYYADSVKGRFTISRDNAKTTVYLQMNSLKPEDTAVYYCAAETLGVYDYESYTYYWGQRTQVTVSS” the entry was “high polyreactivity”; with “QVQLVESGGGLVQAGGSLRLSCAASGSIFDEYAMGWYRQAPGKERELVAVISTSGSTYYADSVKGRFTISRDNAKNPVYLQMNCLKPEDTGVYSSNAAIYTSSYRSYDYWGQGTQVTVTS”, “low polyreactivity”.
With “QVQLVESGGGLVQAGGSLRLSCAASGSIFDFNAMGWYRQAPGKERELVAAIDDIDDSTYYSDSVKGRFTISRDNAKNTVYLQMNSLKPEDTAVYYCAAELRPGYRSSYGLIYDYWGQGTQVTVSS” the entry was “low polyreactivity”; with “QVQLVESGGGLVQAGGSLRLSCAASGSIFDFYAMGWYRQAPGKERELVAAISGSGGSTYYADSVKGRFTISRDNAKNTVYLQMNSLKPEDTAVYYCSYYYWGQGTQVTVSS”, “low polyreactivity”.
For the sequence “QVQLVESGGGLVQAGGSLRLSCAASGSIFDFYAMGWYRQAPGKVRELVAAITSGSNTYYADSVKGRFTISRDNAKNTVYLQMNSLKPEDTAVYYCAARRRIYRSMGYWGQGTQVTVSS”, the “polyreactivity (PSR sort gate)” value is “low polyreactivity”.
With “QVQLVESGGGLVQAGGSLRLSCAASGSIFDGNALGWYRQAPGKERELVAAISYRGGSTYYADSVKGRFTISRDNAKNTVYLQMNSLKPEDTAVYYCAAGSISTPGRGVDKPDPYDYWGQGTQVTVSS” the entry was “low polyreactivity”; with “QVQLVESGGGLVQAGGSLRLSCAASGSIFDGNAMGWYRQAPGKERELVAAITNSGGSTYYADSVKGRFTISRDNAKNTVYLQMNSLKPEDTAVYYCNALPFAWRRYRWVRTMYYWGQGTQVTVSS”, “low polyreactivity”.
Regarding “QVQLVESGGGLVQAGGSLRLSCAASGSIFDGSAMGWYRQAPGKERELVASISSGGSTNYADSVKGRFTISRDNAKNTVYLQMNSMKPEDTAVYYCAAEWVWYKWEFEYWGQGTQVSVSS”, the “polyreactivity (PSR sort gate)” value is listed as “high polyreactivity”.
With “QVQLVESGGGLVQAGGSLRLSCAASGSIFDGYALGWYRQAPGKEREFVAAIDTGDTRTYYADSVKGRFTISRDNAKNTVYLQMNSLKPEDTAVYYCNADDWAYGMDYWGQGTQVTVSS” the entry was “low polyreactivity”; with “QVQLVESGGGLVQAGGSLRLSCAASGSIFDGYAMGWYRQAPGKERELVAAISQRGGSTYYADSVKGRFTISRDNAKNTVYLQMNSLKPEDTAVYYCAADSSYGTREYWGQGTQVTVSS”, “low polyreactivity”; with “QVQLVESGGGLVQAGGSLRLSCAASGSIFDGYAMGWYRQAPGKERELVAAISSGGSTYYADSVKGRFTISRDNAKNTVYLQMNSLKPEDTAVYYCNRVRRRVSTSIYNYWGQGTQVTVSS”, “high polyreactivity”.
With “QVQLVESGGGLVQAGGSLRLSCAASGSIFDGYAMGWYRQAPGKERELVAAISSSGVTTYYADSVKGRFTISRDNAKNTVYLQMNSLKPEDTAVYYCATYSYTWLNYYWGQGTQVTVSS”, the “polyreactivity (PSR sort gate)” value is reported as “high polyreactivity”.
With “QVQLVESGGGLVQAGGSLRLSCAASGSIFDLNAMGWYRQAPGKERELVAAISKSGGSTYYADSVKGRFTISRDNAKNTVYLQMISLKPEDSAVYYCAARYHYPGNWYNYWGQGTQVTVSS” the entry was “low polyreactivity”.
Regarding “QVQLVESGGGLVQAGGSLRLSCAASGSIFDLNAMGWYRQAPGKERELVAAISSGGGTYYADSVKGRFTISRDNAKNTVYFQMNSLKPEDTAVYYCNRVTRWTYNYWGQGTQVTVSS”, the “polyreactivity (PSR sort gate)” value is listed as “high polyreactivity”.
Take “QVQLVESGGGLVQAGGSLRLSCAASGSIFDLYTMGWYRQAPGTERELVAAISRSGGSTYYADSVKGRFTISRDNAKNTVYLQMNSLKPEDTAVYYCAARGPYRPPHGDAYYTYGYWGQGTQVTVSS”: the “polyreactivity (PSR sort gate)” value is on record as “high polyreactivity”.
With “QVQLVESGGGLVQAGGSLRLSCAASGSIFDPNAMGWYRQAPGKERELVAAINSGGSTDYADSVKGRFTISRDNAKNTVYLQMNSLKPEDTAVYYCNAEYGYSGVGDDYWGQGTQVTVSS” the entry was “low polyreactivity”; with “QVQLVESGGGLVQAGGSLRLSCAASGSIFDPYAMGWYRQAPGKETELDAAITASGSSTYYADSVKGRFTISRDNAKNTVYLQMNSLKPEDTAVYYCAADRANWEYLLSWLGYDYWGQGTQVTVSS”, “low polyreactivity”.
With “QVQLVESGGGLVQAGGSLRLSCAASGSIFDRYDMGWYRQAPGKERELVAAISTGGSTNYADSVKGRFTISRDNAKNTVYLHMNSLKPEDTAVYYCADRYLYRMYYWGQCTQVTVSS” the entry was “low polyreactivity”.
With “QVQLVESGGGLVQAGGSLRLSCAASGSIFDSNAMGRYRQAPGKERELVAAISLSGGSTYYADSVKGRFTISRDNAKNTVYLQMNSLKPVDTAVYYCAKDGWYEYYWGQGTQVTVSS” the entry was “low polyreactivity”; with “QVQLVESGGGLVQAGGSLRLSCAASGSIFDSNAMGWYRQAPGKETELVASITSDGDTYYADSVKGRFTISRDNAKNTVYLQIKSVKPEDTAVYYCAAYVPYSGLDYWGQGTQVTVSS”, “low polyreactivity”.
“QVQLVESGGGLVQAGGSLRLSCAASGSIFDSNTMGWYRQAPRKERELVAAITGTGTSTYYADSVKGRFTISRDNAKNTVYLQMNSLKPEDTAVYYCAADLEYKTWWYDYWGQGTQVTVSS”: the “polyreactivity (PSR sort gate)” value was “low polyreactivity”.
With “QVQLVESGGGLVQAGGSLRLSCAASGSIFDSYAMGWYRQAPGKERELVADITSDGSTHYADSVKGRFTISRDNAKNTVYLQMNSLKAEDTAVYYCAADYFFYWLGVPVVDVYYWGQGTQVTVSS”, the “polyreactivity (PSR sort gate)” value is “low polyreactivity”.
With “QVQLVESGGGLVQAGGSLRLSCAASGSIFDSYDRGWYREAPGKERELVAAITSGGSTNYADSVKGRFTISRDNAKNTVYLQMNSLKPEDTAVYYCAAYYWYPVYYGYDYGGQGTQVTVSS” the entry was “low polyreactivity”; with “QVQLVESGGGLVQAGGSLRLSCAASGSIFDSYTMGWYRQAPGKERELVATINRSGGSTYYADSVKGRFTISRDNAKNTVYLQMNSLKPEDTAVYYCANVYPYTPYSSWRSKYDYWGQGTQVTVSS”, “low polyreactivity”; with “QVQLVESGGGLVQAGGSLRLSCAASGSIFDTNAMRWYRQAPGKERELVAAISFSGVRTYYEDSVKGRFTISRYNAKNTVSLQMYSLKPEDTAVYYCAAESGKYLESRYRYYTRYYYWGQGTEVTVSS”, “high polyreactivity”.
With “QVQLVESGGGLVQAGGSLRLSCAASGSIFDTYAMGWYRQAPGKEREFVAAISGTDGSTYYADSVKGRFTISRDNAKNTVYLQMNSLKPEDTAVYYCNAEPPRGDTVSSGGEMDYWGQGTQVTVSS” the entry was “low polyreactivity”; with “QVQLVESGGGLVQAGGSLRLSCAASGSIFDTYAMGWYRQAPGKEREFVAAISRNGGSTYYADSVKGRFTISRDNAKNTVYLQMNSLKAEDTAVYYCATDKRHKFDYWGQGTQVTVSS”, “low polyreactivity”; with “QVQLVESGGGLVQAGGSLRLSCAASGSIFDTYAMGWYRQAPGKERELVAAISSGGRTYYADSVKGRFSISRDNAKNTVYLQMNSLKPEDTAVYYCAVRPRPGYYYWGQGTQVSVSS”, “high polyreactivity”.
For the sequence “QVQLVESGGGLVQAGGSLRLSCAASGSIFDTYAMGWYRQAPGKERELVAAITQSGDRTYYADSVKGRFTISRDNAKNTVYLQMNSLKPEDTAVYYCYTRRGSAWSCDYWGQGTQVTVSS”, the “polyreactivity (PSR sort gate)” value is “low polyreactivity”.
For “QVQLVESGGGLVQAGGSLRLSCAASGSIFDTYAMGWYRQAPGKERELVAAITRRAGSTYYADSVKGRFTISRDNAKNTVYLQMNSLKPEDTPVYYGAAGYDRYPGVIDEYWGQGTEVTVSS”, the “polyreactivity (PSR sort gate)” value is given as “low polyreactivity”.
With “QVQLVESGGGLVQAGGSLRLSCAASGSIFDTYAMGWYRQAPGKERELVAAITWSGSSTYYADSVKGRFTISRDNSKNTVYLQMNSLKPEDTAVYYCAKDYYREVTTEYDYWGQGTQVTVSS” the entry was “high polyreactivity”; with “QVQLVESGGGLVQAGGSLRLSCAASGSIFDTYTMGWYRQAPGKERELVAAITSGTTTTYADSVKGRFTISRDNAKNTVYLQMNSLKPEDTAVYYCAARTSGSFDYCGQGTQVTVSS”, “low polyreactivity”; with “QVQLVESGGGLVQAGGSLRLSCAASGSIFDVNAMGWSRQPPGKERELVAVISSSDSTDYADSVKGRFTISRDNAKNTVYLQMNSLKPEDTAVYYCAADEYQDRPDDYWGQGTQVTVSS”, “low polyreactivity”.
For “QVQLVESGGGLVQAGGSLRLSCAASGSIFDVNAMGWYRQAPGKQRELVAAISDSGGSTYYADSVKGRFTISRDNAKNTVYLQMNSLKPEDTAVYYCNADWSWYNYYDFDYWGQGTQVTVSS”, the “polyreactivity (PSR sort gate)” value is on record as “low polyreactivity”.
With “QVQLVESGGGLVQAGGSLRLSCAASGSIFDVYTMGWYRQAPGKERELVAAINTGGGSTYYADSVKGRFTISRDNAKNTVYLQMNSLKPEETAVYYCAASVYHYGPLYYWGQGTQVTVSS” the entry was “low polyreactivity”; with “QVQLVESGGGLVQAGGSLRLSCAASGSIFDWNALGWYRQAPGKERELVASITGSGGGTNYADSLKGRFTISRDNAKNTVYFQMNSLNPEDTAVYFCNADGLNLDGHEYWGQATQVTVSS”, “low polyreactivity”; with “QVQLVESGGGLVQAGGSLRLSCAASGSIFDWYAIGWYRQAPGKEGELVAAISSGDSTYYADSVKGRFTISRDNAKNTVVLQMNSLKAEETSVSDCAAVTKLSGIRYNYWGQGSQVTVSS”, “low polyreactivity”.
Turning to “QVQLVESGGGLVQAGGSLRLSCAASGSIFDWYAMGWYRQAPGKEGELVAAISSGDSTYYADSVKGRFTISRDNAKKTVYLQMNSLKPEDTAVYYCAAVTKLSGIRYNYWGQGTQVTVSS”, the “polyreactivity (PSR sort gate)” value was “low polyreactivity”.
With “QVQLVESGGGLVQAGGSLRLSCAASGSIFDWYAMGWYRQAPGKERELVAAIDSSGSSTYYADSVKGRFTISRDNAKNTVYLQMNSLKPEDTAVYYCAADSDWIRYWFGSLYGSDYWGQGTQVTVSS”, the “polyreactivity (PSR sort gate)” value is given as “low polyreactivity”.
With “QVQLVESGGGLVQAGGSLRLSCAASGSIFDWYVMGWYRQPPGKERELVATITRDGSTNYADSVKGRFTISRDNAKNTVYLQMNSLKPEDTAVYYCNAASRAYGYNYWGQGTQVTVSS” the entry was “low polyreactivity”.
